A value given as a limit tells only on which side of the number the result lay.

The target in this assay is T1, HA-Halo-MRAP2 (human), Q96G30.
T1 chain: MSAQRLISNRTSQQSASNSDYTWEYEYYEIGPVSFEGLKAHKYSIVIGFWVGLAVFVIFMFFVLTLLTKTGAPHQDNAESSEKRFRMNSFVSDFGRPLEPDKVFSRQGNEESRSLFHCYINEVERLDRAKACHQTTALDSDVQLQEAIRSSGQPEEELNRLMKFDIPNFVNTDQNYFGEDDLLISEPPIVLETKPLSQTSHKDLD
Description: single-molecule pull-down (SiMPull) with photobleaching step counting; one colour: HEK293 cells expressing the HA-Halo-tagged protein alone, labelled at the surface with membrane-impermeable CA-Sulfo646, lysed in 0.5% LMNG/0.05% CHS, immobilised by the HA tag on slides with biotinylated HA antibody, single molecules imaged by TIRF. The conditions noted are these: remark: other sources report otherwise.

B1: HA-Halo-MRAP2, Q96G30 1-205 (natural protein)
chain: T1 chain
modifications: here or on the partner: CA-Sulfo646 dye on the Halo tag; CA-Sulfo646 dye on the Halo tag
B1 showed a percent of molecules with a single bleaching step of 68%, a percent of molecules with three or four bleaching steps of less than 5% and a percent of molecules with two bleaching steps of 28%.

The record behind these values is article PMC7618510.
